From PMC5529062 (Science Advances, 2017)

Target: P22 coat protein (CP) monomers (bacteriophage P22, UniProt P26747 1-430)
Assay: SEC

P22 coat protein (CP) monomers, sequence (P26747 whole entry): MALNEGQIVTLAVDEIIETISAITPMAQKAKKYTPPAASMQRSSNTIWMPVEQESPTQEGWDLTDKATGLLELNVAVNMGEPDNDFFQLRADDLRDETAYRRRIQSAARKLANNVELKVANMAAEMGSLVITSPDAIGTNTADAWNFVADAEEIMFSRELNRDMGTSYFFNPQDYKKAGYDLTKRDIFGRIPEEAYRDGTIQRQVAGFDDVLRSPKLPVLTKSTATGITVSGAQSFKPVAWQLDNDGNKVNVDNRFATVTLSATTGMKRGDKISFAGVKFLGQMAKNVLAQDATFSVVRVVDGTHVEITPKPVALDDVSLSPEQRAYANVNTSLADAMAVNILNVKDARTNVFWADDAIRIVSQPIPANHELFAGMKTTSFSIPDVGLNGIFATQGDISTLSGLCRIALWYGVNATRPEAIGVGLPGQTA

B1: P22 scaffolding protein (SP) (natural protein, bacteriophage P22, UniProt P26748 1-303, looked up)
chain: MEPTTEIQATEDLTLSGDHAAASADSLVVDNANDNAGQEEGFEIVLKDDETAPKQDPAKNAEFARRRIERKRQRELEQQMEAVKRGELPESLRVNPDLPPQPDINAYLSEEGLAKYDYDNSRALAAFNAANTEWLMKAQDARSNAVAEQGRKTQEFTQQSAQYVEAARKHYDAAEKLNIPDYQEKEDAFMQLVPPAVGADIMRLFPEKSAALMYHLGANPEKARQLLAMDGQSALIELTRLSERLTLKPRGKQISSAPPADQPITGDVSAANKDAIRKQMDAAASKGDVETYRKLKAKLKGIR
B1: binds.
